{"source": "paper PMC7365037", "assay_in_all_cases": "ITC", "key": {"[1]": {"target": "HP1α K46A/E52D/D62F engineered chromodomain (His-tagged) (D. melanogaster) (UniProt P05205)"}, "[2]": {"target": "HP1α chromodomain from D. melanogaster, wild-type (His-tagged) (D. melanogaster) (UniProt P05205)"}, "[3]": {"target": "human CBX1 chromodomain double mutant K46A/D62F (HP1α numbering) (His-tagged) (human)"}, "[4]": {"target": "human CBX1 chromodomain, wild-type (His-tagged) (human) (UniProt P83916)", "sequence (P83916 15-73)": "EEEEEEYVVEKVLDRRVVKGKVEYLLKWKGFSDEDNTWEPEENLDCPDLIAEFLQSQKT"}, "[5]": {"target": "human CBX3 chromodomain double mutant K46A/D62F (HP1α numbering) (His-tagged) (human)"}, "[6]": {"target": "human CBX3 chromodomain, wild-type (His-tagged) (human) (UniProt Q13185)", "sequence (Q13185 25-81)": "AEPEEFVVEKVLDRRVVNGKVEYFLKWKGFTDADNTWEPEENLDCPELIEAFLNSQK"}}}
{"substance": "H3K9me3 peptide (used in ITC)", "values": [{"measurement": "Kd", "setting": "[1]", "value": 700, "unit": "nM"}, {"measurement": "Kd", "setting": "[2]", "value": 14000, "unit": "nM"}, {"measurement": "Kd", "setting": "[3]", "value": 130, "unit": "nM"}, {"measurement": "Kd", "setting": "[4]", "value": 600, "unit": "nM"}, {"measurement": "Kd", "setting": "[5]", "value": 400, "unit": "nM"}, {"measurement": "Kd", "setting": "[6]", "value": 3000, "unit": "nM"}]}
